Entries after “also recorded” stand apart in the source; their conditions may differ.
How the values were obtained:
[1] = Thermal shift assay, protein alone; type: physicochemical; settings: 5 μM DIM2 or 10 µM HP1, pH 7.5, 1× GloMelt Dye, 4 to 95 °C, triplicate
Procedure: Thermal shift assays were performed for WT and R1104A DIM2 proteins using a Bio-Rad CFX Connect Real-Time PCR Detection System. Each 20-µL reaction mixture contained 5 μM WT or R1104A-mutated DIM2, and/or 10 µM HP1 protein, dissolved in buffer containing 20 mM Tris-HCl (pH 7.5), 100 mM NaCl, 5% glycerol, 5 mM DTT, and 1× GloMelt Dye (Biotium). The sample plates were subject to heat from 4 to 95 °C with a stepwise increment of 5 °C. Fluorescence intensity was recorded with the excitation and emission wavelength of 470 nm and 510 nm, respectively. The experiments were carried out in triplicate.

HP1 = assay: Size-exclusion chromatography of DIM2-HP1 complex; type: binding, Neurospora Crassa; settings: 1.0 µM DIM2 and/or 2.5 µM HP1, Superdex 200 increase 10/300 GL, pH 7.5
Procedure: For size-exclusion chromatography analysis, 400 µL of the sample mixture containing 1.0 µM DIM2 and/or 2.5 µM HP1 was loaded onto Superdex 200 increase 10/300 GL column (GE Healthcare) and eluted at a flow rate of 0.5 mL/min, in the buffer containing 20 mM Tris-HCl (pH 7.5), 100 mM NaCl, 5% glycerol, and 5 mM DTT. The proteins in each fraction were then visualized by SDS-PAGE.

[2] = system: (CTA)12/(TAG)12 36-mer DNA duplex; assay: In vitro DNA methylation assay of DIM2 (WT or mutant); type: biochemical; set-up: DNA methylation activity: unit not given here; settings: for DNA methylation activity: 30 min, pH 8.0; for reduction of DNA methylation efficiency of DIM2 by mutation: vs WT DIM2
[3] = system: DNA duplex (Upper strand: 5’-ATTATTAATCTAAATTTA-3’); assay: Electrophoretic mobility shift assay (EMSA); type: binding; settings: 0.1 µM DNA duplex, 0, 0.2 or 0.4 µM DIM2, in presence of 0.8 µM H3K9me3 peptide, pH 8.0, 4 °C
Procedure: Each 10-µL reaction mixture contained 0.1 µM DNA duplex (Upper strand: 5’-[…]-3’) mixed with 0, 0.2, or 0.4 µM DIM2, WT or mutant (W261A or W581A), and/or 0.8 µM H3K9me3 peptide in binding buffer containing 20 mM Tris-HCl (pH 8.0), 75 mM NaCl, 10% glycerol, 5 mM DTT, and 2% NP-40. Samples were resolved on a 5% w/v polyacrylamide gel (59:1 for acrylamide:bis-acrylamide) with the running buffer containing 1 × Tris-Glycine (pH 8.6) at 4 °C for 1 h. The gel was stained with SYBR™ Gold (Thermo Fisher Scientific) for 10 min and visualized by ChemiDoc Imaging System (Bio-Rad).

[4] = Fig. 6d, H3_1-24K9me3 binding-associated mutants, 1.0 µM DIM2, 1.0 µM DNA duplex, 30 °C, replicate 1
[5] = Fig. 6d, H3_1-24K9me3 binding-associated mutants, 1.0 µM DIM2, 1.0 µM DNA duplex, 30 °C, replicate 2
[6] = Fig. 6d, H3_1-24K9me3 binding-associated mutants, 1.0 µM DIM2, 1.0 µM DNA duplex, 30 °C, replicate 3

Molecule	melting temperature (Tm) [1]	DIM2-HP1 complex formation (in words) (HP1)	DNA methylation activity ([2]; Fig. 3h, in the presence of HP1 (2 µM) and H3_1-24K9me3 peptide (1.0 µM), 1.0 µM DIM2, 30 °C, replicate 1)	DNA methylation activity ([2]; Fig. 3h, in the presence of HP1 (2 µM) and H3_1-24K9me3 peptide (1.0 µM), 1.0 µM DIM2, 30 °C, replicate 2)	DNA methylation activity ([2]; Fig. 3h, in the presence of HP1 (2 µM) and H3_1-24K9me3 peptide (1.0 µM), 1.0 µM DIM2, 30 °C, replicate 3)	DNA-binding affinity of DIM2 (in words) [3]	DNA methylation activity [2, 4]	DNA methylation activity [2, 5]	DNA methylation activity [2, 6]	reduction of DNA methylation efficiency of DIM2 by mutation [2]
DIM2R1104A: DIM2 with TRD mutation R1104A (protein, left off: His6, N-terminal, cleaved | MBP, N-terminal, cleaved, DIM2 with TRD mutation R1104A) MDSPDRSHGGMFIDVPAETMGFQEDYLDMFASVLSQGLAKEGDYAHHQPLPAGKEECLEPIAVATTITPSPDDPQLQLQLELEQQFQTESGLNGVDPAPAPESEDEADLPDGFSDESPDDDFVVQRSKHITVDLPVSTLINPRSTFQRIDENDNLVPPPQSTPERVAVEDLLKAAKAAGKNKEDYIEFELHDFNFYVNYAYHPQEMRPIQLVATKVLHDKYYFDGVLKYGNTKHYVTGMQVLELPVGNYGASLHSVKGQIWVRSKHNAKKEIYYLLKKPAFEYQRYYQPFLWIADLGKHVVDYCTRMVERKREVTLGCFKSDFIQWASKAHGKSKAFQNWRAQHPSDDFRTSVAANIGYIWKEINGVAGAKRAAGDQLFRELMIVKPGQYFRQEVPPGPVVTEGDRTVAATIVTPYIKECFGHMILGKVLRLAGEDAEKEKEVKLAKRLKIENKNATKADTKDDMKNDTATESLPTPLRSLPVQVLEATPIESDIVSIVSSDLPPSENNPPPLTNGSVKPKAKANPKPKPSTQPLHAAHVKYLSQELVNKIKVGDVISTPRDDSSNTDTKWKPTDTDDHRWFGLVQRVHTAKTKSSGRGLNSKSFDVIWFYRPEDTPCCAMKYKWRNELFLSNHCTCQEGHHARVKGNEVLAVHPVDWFGTPESNKGEFFVRQLYESEQRRWITLQKDHLTCYHNQPPKPPTAPYKPGDTVLATLSPSDKFSDPYEVVEYFTQGEKETAFVRLRKLLRRRKVDRQDAPANELVYTEDLVDVRAERIVGKCIMRCFRPDERVPSPYDRGGTGNMFFITHRQDHGRCVPLDTLPPTLRQGFNPLGNLGKPKLRGMDLYCGGGNFGRGLEEGGVVEMRWANDIWDKAIHTYMANTPDPNKTNPFLGSVDDLLRLALEGKFSDNVPRPGEVDFIAAGSPCPGFSLLTQDKKVLNQVKNQSLVASFASFVDFYRPKYGVLENVSGIVQTFVNRKQDVLSQLFCALVGMGYQAQLILGDAWAHGAPQSRERVFLYFAAPGLPLPDPPLPSHSHYRVKNRNIGFLCNGESYVQRSFIPTAFKFVSAGEGTADLPKIGDGKPDACVRFPDHRLASGITPYIAAQYACIPTHPYGMNFIKAWNNGNGVMSKSDRDLFPSEGKTRTSDASVGWKRLNPKTLFPTVTTTSNPSDARMGPGLHWDEDRPYTVQEMRRAQGYLDEEVLVGRTTDQWKLVGNSVSRHMALAIGLKFREAWLGTLYD	39.5 °C	did not affect the assembly of the DIM2-HP1 complex appreciably; also recorded: barely impacts the association of the DIM2-HP1 complex	3.1	2.552	2.87	–	–	–	–	–
DIM2W581A: DIM2 with W581A mutation to the BAH1 domain (protein, left off: His6, N-terminal, cleaved | MBP, N-terminal, cleaved, DIM2 with W581A mutation to the BAH1 domain) MDSPDRSHGGMFIDVPAETMGFQEDYLDMFASVLSQGLAKEGDYAHHQPLPAGKEECLEPIAVATTITPSPDDPQLQLQLELEQQFQTESGLNGVDPAPAPESEDEADLPDGFSDESPDDDFVVQRSKHITVDLPVSTLINPRSTFQRIDENDNLVPPPQSTPERVAVEDLLKAAKAAGKNKEDYIEFELHDFNFYVNYAYHPQEMRPIQLVATKVLHDKYYFDGVLKYGNTKHYVTGMQVLELPVGNYGASLHSVKGQIWVRSKHNAKKEIYYLLKKPAFEYQRYYQPFLWIADLGKHVVDYCTRMVERKREVTLGCFKSDFIQWASKAHGKSKAFQNWRAQHPSDDFRTSVAANIGYIWKEINGVAGAKRAAGDQLFRELMIVKPGQYFRQEVPPGPVVTEGDRTVAATIVTPYIKECFGHMILGKVLRLAGEDAEKEKEVKLAKRLKIENKNATKADTKDDMKNDTATESLPTPLRSLPVQVLEATPIESDIVSIVSSDLPPSENNPPPLTNGSVKPKAKANPKPKPSTQPLHAAHVKYLSQELVNKIKVGDVISTPRDDSSNTDTKWKPTDTDDHRAFGLVQRVHTAKTKSSGRGLNSKSFDVIWFYRPEDTPCCAMKYKWRNELFLSNHCTCQEGHHARVKGNEVLAVHPVDWFGTPESNKGEFFVRQLYESEQRRWITLQKDHLTCYHNQPPKPPTAPYKPGDTVLATLSPSDKFSDPYEVVEYFTQGEKETAFVRLRKLLRRRKVDRQDAPANELVYTEDLVDVRAERIVGKCIMRCFRPDERVPSPYDRGGTGNMFFITHRQDHGRCVPLDTLPPTLRQGFNPLGNLGKPKLRGMDLYCGGGNFGRGLEEGGVVEMRWANDIWDKAIHTYMANTPDPNKTNPFLGSVDDLLRLALEGKFSDNVPRPGEVDFIAAGSPCPGFSLLTQDKKVLNQVKNQSLVASFASFVDFYRPKYGVLENVSGIVQTFVNRKQDVLSQLFCALVGMGYQAQLILGDAWAHGAPQSRERVFLYFAAPGLPLPDPPLPSHSHYRVKNRNIGFLCNGESYVQRSFIPTAFKFVSAGEGTADLPKIGDGKPDACVRFPDHRLASGITPYIRAQYACIPTHPYGMNFIKAWNNGNGVMSKSDRDLFPSEGKTRTSDASVGWKRLNPKTLFPTVTTTSNPSDARMGPGLHWDEDRPYTVQEMRRAQGYLDEEVLVGRTTDQWKLVGNSVSRHMALAIGLKFREAWLGTLYD	–	–	–	–	–	modestly reduced the DNA-binding affinity	4.016	4.128	4.356	4–5 fold
DIM2W261A: DIM2 with W261A mutation to the RFTS domain (protein, left off: His6, N-terminal, cleaved | MBP, N-terminal, cleaved, DIM2 with W261A mutation to the RFTS domain) MDSPDRSHGGMFIDVPAETMGFQEDYLDMFASVLSQGLAKEGDYAHHQPLPAGKEECLEPIAVATTITPSPDDPQLQLQLELEQQFQTESGLNGVDPAPAPESEDEADLPDGFSDESPDDDFVVQRSKHITVDLPVSTLINPRSTFQRIDENDNLVPPPQSTPERVAVEDLLKAAKAAGKNKEDYIEFELHDFNFYVNYAYHPQEMRPIQLVATKVLHDKYYFDGVLKYGNTKHYVTGMQVLELPVGNYGASLHSVKGQIAVRSKHNAKKEIYYLLKKPAFEYQRYYQPFLWIADLGKHVVDYCTRMVERKREVTLGCFKSDFIQWASKAHGKSKAFQNWRAQHPSDDFRTSVAANIGYIWKEINGVAGAKRAAGDQLFRELMIVKPGQYFRQEVPPGPVVTEGDRTVAATIVTPYIKECFGHMILGKVLRLAGEDAEKEKEVKLAKRLKIENKNATKADTKDDMKNDTATESLPTPLRSLPVQVLEATPIESDIVSIVSSDLPPSENNPPPLTNGSVKPKAKANPKPKPSTQPLHAAHVKYLSQELVNKIKVGDVISTPRDDSSNTDTKWKPTDTDDHRWFGLVQRVHTAKTKSSGRGLNSKSFDVIWFYRPEDTPCCAMKYKWRNELFLSNHCTCQEGHHARVKGNEVLAVHPVDWFGTPESNKGEFFVRQLYESEQRRWITLQKDHLTCYHNQPPKPPTAPYKPGDTVLATLSPSDKFSDPYEVVEYFTQGEKETAFVRLRKLLRRRKVDRQDAPANELVYTEDLVDVRAERIVGKCIMRCFRPDERVPSPYDRGGTGNMFFITHRQDHGRCVPLDTLPPTLRQGFNPLGNLGKPKLRGMDLYCGGGNFGRGLEEGGVVEMRWANDIWDKAIHTYMANTPDPNKTNPFLGSVDDLLRLALEGKFSDNVPRPGEVDFIAAGSPCPGFSLLTQDKKVLNQVKNQSLVASFASFVDFYRPKYGVLENVSGIVQTFVNRKQDVLSQLFCALVGMGYQAQLILGDAWAHGAPQSRERVFLYFAAPGLPLPDPPLPSHSHYRVKNRNIGFLCNGESYVQRSFIPTAFKFVSAGEGTADLPKIGDGKPDACVRFPDHRLASGITPYIRAQYACIPTHPYGMNFIKAWNNGNGVMSKSDRDLFPSEGKTRTSDASVGWKRLNPKTLFPTVTTTSNPSDARMGPGLHWDEDRPYTVQEMRRAQGYLDEEVLVGRTTDQWKLVGNSVSRHMALAIGLKFREAWLGTLYD	–	–	–	–	–	modestly reduced the DNA-binding affinity	3.359	3.206	3.347	4–5 fold
